# Results reported in the nanobody polyreactivity screen of Harvey et al. (2022).
# Assay: yeast display, Sf9 membrane polyspecificity reagent, FACS + sequencing; frameworks hold sequencing errors
# Summary of the method: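 Galactose induction of a Saccharomyces cerevisiae BJ5465 synthetic nanobody display library ran 36–48 hours. The cells were then stained for 1 hour at 4 °C with 10% biotinylated, detergent-solubilized Sf9 membrane reagent, pulled down on streptavidin microbeads and FACS-sorted into low and high (top ~1%) gates on expression and reagent-binding fluorescence. Labels for polyreactivity follow the gate of origin.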
row,Sequence,polyreactivity (PSR sort gate)
1,QVQRVESGGGLVQAGGSLRLSCAASGVIFDDNAMGWYRQAPGKERELVAAITYRGGSTYYADSVKGRFTISRDNAKNTVYLQMNSLKPEDTAVYYCAAGGTARDDSWGQGTQVTVSS,low polyreactivity
2,QVQLVESGGGLVQAGGSLRLSCAASGRTFYGYVMGWYRQAPGKERELVAAISRSVGSTYYADSVKGRFTISRDNAKNTVYLQMNSLKPEDTAVYYCATSVYGGVDYWGQGTQVTVSS,high polyreactivity
3,QVQLVESGGGLVQAGGSLRLSCAASGFIFVYNAMGWYRPAPGKERELVAAINGSGDSTYYADSVKGRFTISRDNAKNTVYLQMNSLKPEDTAVYYCAARYKVPLSRYILVLYDYWGQGTQVTVSS,low polyreactivity
4,QVQLVESGGGLVQAGGSLRLSCAASGLTFQYKTMGRYRQAPGKEREFVAAITISGGTTYYADSVKGRFTISRDNAKTTVYLQMNSLKPEDTAVHYCAADFNSTERGTNMDYWGQGTQVTVSS,low polyreactivity
5,QVQLVESGGGLFQAGGSLRVSSAPSGITFYGYAMGWYRQAPGKERELVAAINRGGTGTYYADSVKGRFTISRYNAKNTVYLQMNSLTPEDTAVYYCNKAGYPLADPTAGKRQFDDWGQGTEVTVSS,low polyreactivity
6,QVQLVESGGGLVLAGGSLSLSCAASGSTFIWNAMGWYRQAPGKERELVAAIRRGSSTNYADSVKGRFTISRDNAKNTVYLQMNSLKPEDTAVYYCAKKQVTTDVSSETFVLEMDYWGQGTQVTVSS,low polyreactivity
7,QVQLVESGGGLVQAGGSLRLSCAASGFTFRRNAMGWYRQAPGKEREFVAAITRSGGSTYYADSVKGRFTISRDNAKNTVYLQMNSLKPEDTAVYYCAADLPRWGSYGYGKMDHWGQGTQVTVSS,high polyreactivity
8,QVQLVESGGGLVQAGGSLRLSCAASGSTFSYNAMGWYRQAPGKERELVATITYSGGTTYYADSVKGRFTISRDNAKNTVYLQMNSLKPEDTAVYYCAALYSFSYLSTSFVVEDWYYYWGQGTQVTVSS,high polyreactivity
9,QVQLVESGGGLVQAGGSLRLSCAASGRTFEQNVMGWYRQAPGTERELVAAITTGGSTNYADSVKGRFTISRDNAKNTVYLQMNSLKPEDTAVYYCAADRYLGGDYDYWGQGTQVTVSS,low polyreactivity
10,QVQLVESGGGLVQAGGSLRLSCAASGRILARNAMGWYRQAPGKERELVAVISYSGGRTYYADSVKGRFTISRDNAKNTVYLQMNSLKPEDTAVYYCAASRSFQGNRYDYWGQGTQVTVSS,high polyreactivity
11,QLQLVESGGGLVQAGGSLRLSCAASGSIIAAYAMGWYRQAPVKERELVAVITRSGGSTYYADSVKGRFTISRDNAKNTVYLQMNSLKPEDTAVYYCAAVGTRKMYYWGQGTQVTVSS,high polyreactivity
12,QVQLVESGGGLVQAGGSLRLSCAASGSIFYRNAMGWYRQAPGKERELVAAITWSGVNTYYADSVKGRFTISRDNAKNTVYLQMNSLKPEDTAVYYCAVPSRYWLNRGFDYWGQGSQVTVSS,low polyreactivity
13,QVQLVESGGGLFQAGGSLRLSCAASGGTFPYNAMGWYRPAPGKERELVATISFTDGSTYYADSVKGRFTLSRYIAKNTVYLQMNSLKPEDTAVYYCAKDYYRPGMDYWGQGTQVTVSS,low polyreactivity
14,QVQLVESGGGLVQAGGSLRLSCAASGSIFGYNVMGWYRQAPGKERELVAGITSGGSTNYADSVKGRFTISRDNAKNTVYLQMNSLKPEDTAVYYCNAEGVFGDGRSGFYWYDYWGQGTQVTVSS,low polyreactivity
15,QVQLVESGGGLVQAGGSLRLSCAASGRTFVWNVMGWYRQAPGKEREFVAAISGGSTYYADSVKGRFTISRDNAKNTVYLQMTSLKPEDTAVYYCAADSKLHPRYEYWGQGTQVTVSS,low polyreactivity
16,QVQLVDSGGGLVQAGGSLRLSCAASGRPSVLMLMGWYRQAPGKERELVAAIDDSTDTTYYADSVKGRFTISRDNAKNTVYLQMNSLKPEDTAVYYCAAEEGYVKFSGSWSYGYDYWGQGTQVTVSS,high polyreactivity

row,Sequence,polyreactivity (PSR sort gate)
1,QVHHVESGGGLVQAGGILRLSCAASGFTIFKYAMGWSRQKPGKERELVATISIDGITNYADSVKGRFTISRDNAKNTVYLQMNILKPEDTAVYYCHALSLYQQLGYWGQGTQVTVSS,low polyreactivity
2,QVQLVESGGGLVQAGGSLRLSCSASGFILSYYARGWYRQSPGKERELVAAISRAGSTNYADSVKGRFTISRDNAKNTVYLQMNSLKPEDTAVYYCNKRQYSARVSRSYDYWGQGTQVTVSS,high polyreactivity
3,PVQLVESGGGLVQAGGSLRLSCAASGFTFYSYAMGWYRQAPGKEREFVAAGSTYYADSVKGRFTISRDNAKNTVYLQMNSLKPEDTAVYYCAADPWIYVQSYGFWGQGTQVTVSS,low polyreactivity
4,QVQLVESGGGLVQAGGSLRLSCDASGSIFGINVMGWYRQAPGTERELVARINDGADTNYADSVKGRFTISRDNAKNTVYLQMNSLKPEDTAVYYCAKPYYDGRTHFDSWGQGTQVTVSS,low polyreactivity
5,QVQLVESGGGLVQAGGSLRLSCAASGRIYLYAMGWYRQAPRKERELVASISYSGGSTYYADSVKGRFTISRDNAKNTVYLQMNSLKPEDTAVYYCATRRAGSCPPYGYWGQGSQVTVSS,high polyreactivity
6,QVQLVESGGGLDQAGGSLRLSCAASGSTFRRYAMGWYRQAPGKERELVAAITGSGGRTYYADSVKGRFTISRDNAKNTVYLQMNSLKPEDTAVYYCNAVSYIDYSRARIRYEYWGQGTQVTVSS,high polyreactivity
7,QVQLVESGGGLVQAGGSRRLSCAASGRFFSAYAMGWYRQAPGKDRELVAAITWSGANTDYADSVKGRFTISRDNANNTVYLQMNSLKPEDTAVYYCNASVGRDSAYDYWGQGTQVTVSS,low polyreactivity
8,QVQLVESGGGLVQAGGSLRLSCAASGRIFVWNTMGWYRQAPGKERELVAAITSGGSTTYADSVKGRFTISRDNAKNTVYLQMNSLKPEDTAVYYCNTELDLYHPGDDYWGQGTQVTVSS,high polyreactivity
9,QVQLVESGGGLVQAGGSLRLSCAASGNIFGGNAMGWYRQAPGKERELVAAITRGGSTYYADSVKGRFTISRDNAKNTVYLQMNSLTPEDTAVYYCAAQLFKWKNRQSLWFDHGYYWGQGTQLTVSS,low polyreactivity
10,QVQLVESGGGLVQAGGSLRLRCAASGFTLRLYTMAWYRQAPGQERELVAAINKRGGSTYYADSVKGRFTISRDNAKNSVYLQMISLKPEDTAVYYCANVPGYKAYEYDYWGQGTQVTVSS,high polyreactivity
11,QVQLVESGGGLVQAGGSLRLSCAASGFTFRKNAKGWYRQAPGKERELVAAISSGSGSTYYADSVKGRFTISRDNAKNTVYLQMNSLKPEDNAVYYCNAEAYYTTGYPTSDVFDRYDYWGQGTQVTVSS,low polyreactivity
12,QVQLVESGGGLVQAGGSLRLSCAASGSIFSGNAMGWYRQAPGKERELVAAISRSGGSTYYADSVKGRFTISRDNAKNTVYLQMNSLKPEDTAVYYCAAYRTHGPPRAIRFDYWGQGTQVTVSS,high polyreactivity
13,QVQLVESGGGLVQAGGSLRLSCAASGSIFATNAMGWYRQAPGKERELVATITNSGASTSYADSVKGRFTISRDNAKNTVYLQMNSLKPEDTAVYYCNAYGYRAYGVRGYTYGYDYWGQGTQVTVSS,low polyreactivity
14,QVQLVQSGGGIVQAGGSLRISCAASGFIFSSYDMGWYRQAPGKESELVAAISWTGGSTYYADSVKARFTISRDNAKNTVYLQMTSLKPEETAVYYCNAYPYFLVRIMDSWGQGTEVTVSS,high polyreactivity
15,QVQLVESGGGLVQAGGSLRLSCAASGRTFYIYTRGWYRQAPGKERELVAAISSSGDSTYYADSVKGRFTISRDNAKNTVYLQMNSLKPEDTAVYYCAAYPTYPDEYWGQGTQVTVSS,low polyreactivity
